Experimental data as given in patent publication US20200317736A1.

Target: Multidrug transporter EmrE (Escherichia coli (strain K12)) (Escherichia coli (strain K12)) (UniProt P23895)
Assay: cell-based or functional assay

Chain of UniProt P23895 (P23895 whole entry): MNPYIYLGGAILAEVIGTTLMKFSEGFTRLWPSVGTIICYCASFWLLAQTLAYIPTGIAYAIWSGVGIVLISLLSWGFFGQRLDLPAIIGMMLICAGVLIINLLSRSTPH

First: A87-I94 (peptide)
Second: I89-A96 (peptide)
The inhibition of ethidium bromide efflux from E. coli K12 cells (fluorescence decay), peptide 4 uM of the first is higher: 60% for the first, 26% for the second.

In the case of M92-L99 (peptide), the inhibition of ethidium bromide efflux from E. coli K12 cells (fluorescence decay), peptide 4 uM is reported as 68%.
